Key:
[1] = molecular target: catalytically-active recombinant GST-tagged human EGFR (active-rhEGFR; Upstate), P00533
[2] = molecular target: GST-tagged EGFR-DEL2 protein (amino acid 889-1045)
[3] = molecular target: T1, EGFR-DEL4 (amino acid 977-1045) protein
T1 chain: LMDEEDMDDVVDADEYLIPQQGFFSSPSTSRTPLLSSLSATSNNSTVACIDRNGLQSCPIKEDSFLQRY

[4] = molecular target: GST-tagged EGFR-DEL2 (Y992A) protein
[5] = molecular target: T2, GST-tagged EGFR-DEL3 (amino acid 1046-1186)
T2 chain: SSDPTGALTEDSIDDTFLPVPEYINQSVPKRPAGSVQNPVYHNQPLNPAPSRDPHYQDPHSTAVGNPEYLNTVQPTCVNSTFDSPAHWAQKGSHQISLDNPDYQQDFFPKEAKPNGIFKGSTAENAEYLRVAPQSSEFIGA

[6] = molecular target: T3, GST-tagged EGFR-DEL1 (amino acid 692-891)
T3 chain: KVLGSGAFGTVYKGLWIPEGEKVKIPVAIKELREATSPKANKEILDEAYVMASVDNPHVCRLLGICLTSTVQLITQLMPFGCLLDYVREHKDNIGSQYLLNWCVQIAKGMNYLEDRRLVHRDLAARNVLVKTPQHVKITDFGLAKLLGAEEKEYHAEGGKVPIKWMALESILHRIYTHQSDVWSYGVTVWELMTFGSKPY

B1: purified recombinant His-tagged TTK (protein)
chain: MESEDLSGRELTIDSIMNKVRDIKNKFKNEDLTDELSLNKISADTTDNSGTVNQIMMMANNPEDWLSLLLKLEKNSVPLSDALLNKLIGRYSQAIEALPPDKYGQNESFARIQVRFAELKAIQEPDDARDYFQMARANCKKFAFVHISFAQFELSQGNVKKSKQLLQKAVERGAVPLEMLEIALRNLNLQKKQLLSEEEKKNLSASTVLTAQESFSGSLGHLQNRNNSCDSRGQTTKARFLYGENMPPQDAEIGYRNSLRQTNKTKQSCPFGRVPVNLLNSPDCDVKTDDSVVPCFMKRQTSRSECRDLVVPGSKPSGNDSCELRNLKSVQNSHFKEPLVSDEKSSELIITDSITLKNKTESSLLAKLEETKEYQEPEVPESNQKQWQSKRKSECINQNPAASSNHWQIPELARKVNTEQKHTTFEQPVFSVSKQSPPISTSKWFDPKSICKTPSSNTLDDYMSCFRTPVVKNDFPPACQLSTPYGQPACFQQQQHQILATPLQNLQVLASSSANECISVKGRIYSILKQIGSGGSSKVFQVLNEKKQIYAIKYVNLEEADNQTLDSYRNEIAYLNKLQQHSDKIIRLYDYEITDQYIYMVMECGNIDLNSWLKKKKSIDPWERKSYWKNMLEAVHTIHQHGIVHSDLKPANFLIVDGMLKLIDFGIANQMQPDTTSVVKDSQVGTVNYMPPEAIKDMSSSRENGKSKSKISPKSDVWSLGCILYYMTYGKTPFQQIINQISKLHAIIDPNHEIEFPDIPEKDLQDVLKCCLKRDPKQRISIPELLAHPYVQIQTHPVNQMAKGTTEEMKYVLGQLVGLNSPNSILKAAKTLYEHYSGGESHNSSSSKTFEKKRGKK
tyrosine phosphorylation of active-rhEGFR (in vitro kinase assay, anti-phospho-tyrosine western blot) [1]: the phosphorylation of active-rhEGFR by TTK was not inhibited by AG1478
phosphorylation of EGFR Tyr-992 (in vitro kinase assay, western blot) [2]: Phosphorylation of EGFR Tyr-992 in GST-tagged EGFR-DEL2 protein (amino acid 889-1045) was promoted in a TTK-dose dependent manner
phosphorylation site by MALDI tandem mass spectrometry after in vitro phosphorylation [2]: phosphorylation of EGFR Ser-967 was identified (data not shown)
phosphorylation of EGFR Tyr-992 (in vitro kinase assay) [3]: EGFR-DEL4 (amino acid 977-1045) protein was not phosphorylated at Tyr-992 (data not shown)
32P incorporation ([gamma-32P] ATP in vitro kinase assay, autoradiography) [4]: This mutation remarkably reduced the intensity of lower-band, but did not reduce that of upper-band
tyrosine phosphorylation (in vitro kinase assay, western blot) [5]: other tyrosine residues in GST-tagged EGFR-DEL1 (amino acid 692-891), EGFR-DEL2 and EGFR-DEL3 (amino acid 1046-1186) proteins were not phosphorylated at all
tyrosine phosphorylation (in vitro kinase assay, western blot) [6]: other tyrosine residues in GST-tagged EGFR-DEL1 (amino acid 692-891), EGFR-DEL2 and EGFR-DEL3 (amino acid 1046-1186) proteins were not phosphorylated at all

Reference: patent publication US20100009920
